This passage reports stoichiometry N results from article PMC6424575.

The assay addresses stand-alone thioesterase (TE) domain of the 6-deoxyerythronolide B synthase (DEBS). Briefly: SEC. For orientation: Size exclusion chromatography separates by hydrodynamic size, large species first.

As usually defined, the stoichiometry N is the number of molecules, sites or subunits per partner or assembly. The substance “stand-alone thioesterase (TE) domain of the 6-deoxyerythronolide B synthase (DEBS) (domain or fragment)” yielded a stoichiometry N of 2.
